How the values were obtained:
[1] = biological target: p217+ tau peptides (endogenous human tau protein or tau fragments phosphorylated at T217 and/or T212) (human) (UniProt P10636); assay: Simoa sandwich ELISA, pT3 capture beads, pooled AD CSF diluted 1:64
[2] = biological target: p217+ tau peptides (endogenous human tau protein or tau fragments phosphorylated at T217 and/or T212) (human) (UniProt P10636); assay: Simoa sandwich ELISA, pT3 capture beads, pooled AD CSF diluted 1:32
[3] = biological target: p217+ tau peptides (endogenous human tau protein or tau fragments phosphorylated at T217 and/or T212) (human) (UniProt P10636); assay: Simoa sandwich ELISA, pT3 capture beads, pooled AD CSF diluted 1:16
[4] = biological target: p217+ tau peptides (endogenous human tau protein or tau fragments phosphorylated at T217 and/or T212) (human) (UniProt P10636); assay: Simoa sandwich ELISA, pT3 capture beads, pooled AD CSF diluted 1:2
[5] = biological target: p217+ tau peptides (endogenous human tau protein or tau fragments phosphorylated at T217 and/or T212) (human) (UniProt P10636); assay: Simoa sandwich ELISA, pT3 capture beads, pooled AD CSF diluted 1:4
[6] = biological target: p217+ tau peptides (endogenous human tau protein or tau fragments phosphorylated at T217 and/or T212) (human) (UniProt P10636); assay: Simoa sandwich ELISA, pT3 capture beads, pooled AD CSF diluted 1:8

p217+ tau peptides (endogenous human tau protein or tau fragments phosphorylated at T217 and/or T212) (human), sequence (P10636 other isoform, or with tags, fused parts or gaps limits assumed): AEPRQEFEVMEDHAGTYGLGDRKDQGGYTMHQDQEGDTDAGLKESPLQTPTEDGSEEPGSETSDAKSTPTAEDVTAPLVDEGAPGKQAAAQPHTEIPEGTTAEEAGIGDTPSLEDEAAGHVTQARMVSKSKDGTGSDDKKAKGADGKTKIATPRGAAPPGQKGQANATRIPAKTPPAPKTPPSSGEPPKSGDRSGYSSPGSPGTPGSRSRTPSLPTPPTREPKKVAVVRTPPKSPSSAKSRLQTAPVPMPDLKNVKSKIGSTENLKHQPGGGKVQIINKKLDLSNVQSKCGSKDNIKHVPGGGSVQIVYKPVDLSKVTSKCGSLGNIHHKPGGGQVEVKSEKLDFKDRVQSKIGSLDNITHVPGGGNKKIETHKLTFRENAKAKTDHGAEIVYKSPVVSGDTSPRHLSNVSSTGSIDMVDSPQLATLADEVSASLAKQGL

S/N @ 1:64 dilution [1]: 19 S/N
S/N @ 1:32 dilution [2]: 35 S/N
S/N @ 1:16 dilution [3]: 75 S/N
S/N @ 1:2 dilution [4]: 525 S/N
S/N @ 1:4 dilution [5]: 262 S/N
S/N @ 1:8 dilution [6]: 147 S/N
Substance: Quanterix tau 2.0 assay detector (antibody)
